Patent US11434289B2, “Anti-GPR20 antibody and anti-GPR20 antibody-drug conjugate” (DAIICHI SANKYO COMPANY, LIMITED, priority 2017, dated 2022)

B1: 04-079: rat anti-human GPR20 antibody; heavy chain SEQ ID NO: 12, light chain SEQ ID NO: 17 (antibody, listed as Rattus norvegicus)
heavy: MEWNWVFLFLLSVTAVVHSQVQLQQSGAELAKPGSSVKISCKASGYTFTSYYITWIKQTTGQGLKYIGYINPGSGHTNYNEKFKGKATLTVDKSSSTAFMQLSSLTPDDSAVYYCARGAGGFLRIISKFDYWGQGVMVTVSSAQTTAPSVYPLAPGCGDTTSSTVTLGCLVKGYFPEPVTVTWNSGALSSDVHTFPAVLQSGLYTLTSSVTSSTWPSQTVTCNVAHPASSTKVDKKVERRNGGIGHKCPTCPTCHKCPVPELLGGPSVFIFPPKPKDILLISQNAKVTCVVVDVSEEEPDVQFSWFVNNVEVHTAQTQPREEQYNSTFRVVSALPIQHQDWMSGKEFKCKVNNKALPSPIEKTISKPKGLVRKPQVYVMGPPTEQLTEQTVSLTCLTSGFLPNDIGVEWTSNGHIEKNYKNTEPVMDSDGSFFMYSKLNVERSRWDSRAPFVCSVVHEGLHNHHVEKSISRPPGK
light: METDRLLLWVLLLWVPGSTGDTVLTQSPALAVSLGQRVTISCRASKSVSTYMHWYQQRSGQQPKLLIYSASNLESGVPSRFSGSGSGTDFTLTIDPVKADDITNYYCQQSNELPYTFGAGTKLELKRADAAPTVSIFPPSTEQLATGGASVVCLMNNFYPRDISVKWKIDGTERRDGVLDSVTDQDSKDSTYSMSSTLSLTKADYESHNLYTCEVVHKTSSSPVVKSFNRNEC
modifications: SIGNAL (1)..(19); SIGNAL (1)..(20)
B2: 04-126: rat anti-human GPR20 antibody; heavy chain SEQ ID NO: 22, light chain SEQ ID NO: 27 (antibody, listed as Rattus norvegicus)
heavy: MEWNWVFLFLLSVTAEVHSQVQLRQSGAELAKPGSSVKISCKASGYTFTSYYIIWMKQTAGQGLQYVGYINPGSGHTNYNEKFKGKATLTVDKSSSTAFMQLSSLTPDDSAVYYCARGTGGFLRIISKFDYWGQGVMVTVSSAQTTAPSVYPLAPGCGDTTSSTVTLGCLVKGYFPEPVTVTWNSGALSSDVHTFPAVLQSGLYTLTSSVTSSTWPSQTVTCNVAHPASSTKVDKKVERRNGGIGHKCPTCPTCHKCPVPELLGGPSVFIFPPKPKDILLISQNAKVTCVVVDVSEEEPDVQFSWFVNNVEVHTAQTQPREEQYNSTFRVVSALPIQHQDWMSGKEFKCKVNNKALPSPIEKTISKPKGLVRKPQVYVMGPPTEQLTEQTVSLTCLTSGFLPNDIGVEWTSNGHIEKNYKNTEPVMDSDGSFFMYSKLNVERSRWDSRAPFVCSVVHEGLHNHHVEKSISRPPGK
light: METDRLLLWVLLLWVPGSTGDTVLTQSPALAVSLGQRVTISCRASKSVSTYMHWYQQRSGQQPKLLIYSASTLESGVPSRFSGSGSGTDFTLTIDPVEADDIANYYCQQSNELPYTFGAGTKLELKRADAAPTVSIFPPSTEQLATGGASVVCLMNNFYPRDISVKWKIDGTERRDGVLDSVTDQDSKDSTYSMSSTLSLTKADYESHNLYTCEVVHKTSSSPVVKSFNRNEC
modifications: SIGNAL (1)..(19); SIGNAL (1)..(20)
B3: 04-046: rat anti-human GPR20 antibody; heavy chain SEQ ID NO: 2, light chain SEQ ID NO: 7 (antibody, listed as Rattus norvegicus)
heavy: MEWNWVFLFLLSVTAEVHSQVQLQQSGAELAKPGSSVKISCKASGYTFTSYYISWIKQTTGQGLKYIGFINPGSGHTNYNEKFKGKATLTVDKSSSTAFMQLSSLTPDDSAIYYCARGAGGFLRIITKFDYWGQGVMVTVSSAQTTAPSVYPLAPGCGDTTSSTVTLGCLVKGYFPEPVTVTWNSGALSSDVHTFPAVLQSGLYTLTSSVTSSTWPSQTVTCNVAHPASSTKVDKKVERRNGGIGHKCPTCPTCHKCPVPELLGGPSVFIFPPKPKDILLISQNAKVTCVVVDVSEEEPDVQFSWFVNNVEVHTAQTQPREEQYNSTFRVVSALPIQHQDWMSGKEFKCKVNNKALPSPIEKTISKPKGLVRKPQVYVMGPPTEQLTEQTVSLTCLTSGFLPNDIGVEWTSNGHIEKNYKNTEPVMDSDGSFFMYSKLNVERSRWDSRAPFVCSVVHEGLHNHHVEKSISRPPGK
light: METDRLLLWVLLLWVPGSTGDTVLTQSPALAVSLGQRVTISCRASKSVSTYIHWYQQRSGQQPKLLIYSASNLESGVPSRFSGSGSGTDFTLTIDPVEPDDIANYYCQQINELPYTFGAGTKLELKRADAAPTVSIFPPSTEQLATGGASVVCLMNNFYPRDISVKWKIDGTERRDGVLDSVTDQDSKDSTYSMSSTLSLTKADYESHNLYTCEVVHKTSSSPVVKSFNRNEC
modifications: SIGNAL (1)..(19); SIGNAL (1)..(20)

Legend:
[1] = molecular target: T1, mouse GPR20 (Mus musculus, UniProt Q8BYC4); experiment: Cell-ELISA binding to 293α cells expressing mouse GPR20; conditions: transiently transfected 293α cells, FIG. 22
T1 construct: using the full-length mouse GPR20 expression vector pcDNA-mGPR20 constructed in 4)-1 as a template; expressed in transfected cells; host or cells: 293α cells, transient
T1 sequence (Q8BYC4 whole entry): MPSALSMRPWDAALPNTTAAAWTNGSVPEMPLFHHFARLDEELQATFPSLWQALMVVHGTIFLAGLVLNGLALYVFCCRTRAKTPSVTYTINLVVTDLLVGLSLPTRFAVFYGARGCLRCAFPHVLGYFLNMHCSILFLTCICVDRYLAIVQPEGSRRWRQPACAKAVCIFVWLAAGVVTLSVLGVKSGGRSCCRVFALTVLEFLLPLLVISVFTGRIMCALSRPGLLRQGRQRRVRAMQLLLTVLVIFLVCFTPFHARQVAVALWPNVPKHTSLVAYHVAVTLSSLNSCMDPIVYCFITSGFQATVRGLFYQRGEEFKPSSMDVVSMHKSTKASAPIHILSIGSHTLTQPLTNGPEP
Experimental: (§1) The culture supernatant of the 293a cells transfected with the expression vector prepared in Example 1)-4-1 was removed, and the culture supernatant from each hybridoma was then added to the 293a cells transfected either with pcDNA3.1-hGPR20 or pcDNA3.1. The cells were left standing at 4° C. for 1 hour. The cells in the wells were washed once with PBS (+) supplemented with 5% FBS, and thereafter, Anti-Rat IgG-Peroxidase antibody produced in rabbit (Sigma-Aldrich Co. LLC) that had been 500-fold diluted with PBS (+) supplemented with 5% FBS was added to the wells. The cells were left standing at 4° C. for 1 hour. The cells in the wells were washed three times with PBS (+) supplemented with 5% FBS, and thereafter, OPD chromogenic solution (which had been prepared by dissolving o-phenylenediamine dihydrochloride (Wako Pure Chemical Industries, Ltd.) and H2O2 in an OPD solution (0.05 M trisodium citrate, 0.1 M disodium hydrogen phosphate 12-water; pH 4.5), so that the substances became 0.4 mg/ml and 0.6% (v/v), respectively) was added in an amount of 100 μL/well to the wells. A coloring reaction was carried out with occasional stirring. Thereafter, 1 M HCl was added to the plate (100 μL/well) to terminate the coloring reaction, followed by measurement of the absorbance at 490 nm using a plate reader (ENVISION: PerkinElmer, Inc.).
According to a method known to a person skilled in the art, cDNA was artificially synthesized based on Ref Seq sequence NM_173365 of mouse GPR20, and then cloned into pcDNA-DEST40 expression vector (Invitrogen Corp.) to construct mouse GPR20 expression vector pcDNA-mGPR20.
The binding activity of the anti-GPR20 antibodies 04-046, 04-079, 04-126, 04-021, 13-024, and 13-048 against 293a cells into which different GPR20 expression vectors were transiently introduced was examined by the same method as the Cell-ELISA method shown in Example 1. […]

[2] = molecular target: T2, human GPR20 with EC2 substituted with a mouse GPR20-derived sequence (Homo sapiens, UniProt Q99678, Y113F); experiment: Cell-ELISA binding to human/mouse chimeric GPR20 (EC2 substituted); conditions: hGPR20_mECD2, FIG. 22
T2 construct: expressed in transfected cells; host or cells: 293α cells, transient
T2 sequence (Q99678 whole entry Y113F): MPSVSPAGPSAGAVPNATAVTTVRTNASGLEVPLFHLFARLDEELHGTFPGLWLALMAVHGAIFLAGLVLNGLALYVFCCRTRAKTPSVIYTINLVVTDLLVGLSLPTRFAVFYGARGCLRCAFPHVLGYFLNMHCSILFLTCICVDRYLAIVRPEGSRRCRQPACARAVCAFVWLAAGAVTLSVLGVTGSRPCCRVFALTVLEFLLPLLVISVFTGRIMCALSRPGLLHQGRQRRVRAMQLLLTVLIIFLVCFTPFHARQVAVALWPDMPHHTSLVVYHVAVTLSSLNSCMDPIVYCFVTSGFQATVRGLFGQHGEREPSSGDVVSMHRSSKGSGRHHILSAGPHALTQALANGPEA
Experimental: as §1
In the construction of expression vectors given below, using the full-length human GPR20 expression vector pcDNA3.1-hGPR20 produced in Example 1 as a template, each PCR reaction was carried out with the primer set given below. In this reaction, KOD FX DNA polymerase (Toyobo Co., Ltd.) was used, and the reaction was carried out at 15 cycles or 10 cycles each involving 98° C. for 10 seconds, 58° C. for 30 seconds, and 68° C. for 7 minutes. Thereafter, the obtained PCR product was treated with the restriction enzyme Dpnl. […]

[3] = molecular target: T3, human GPR20 (Homo sapiens, UniProt Q99678); experiment: Analysis of GPR20-binding site of anti-GPR20 antibodies by Cell-ELISA; conditions: EC1 = positions 1 to 48, EC2 = positions 108 to 125 of human GPR20
T3 construct: expressed in transfected cells; host or cells: 293T cells, transient, Lipofectamine 2000
T3 sequence (Q99678 whole entry): as the sequence (Q99678 whole entry Y113F) above, with F113Y counted along it
Experimental: as §1
Binding sites of anti-human GPR20 antibodies were classified by measuring their binding activity against mouse GPR20, N-terminally FLAG-tagged human GPR20, and human/mouse chimeric GPR20 in which each of four extracellular regions (EC1, EC2, EC3, and EC4) of human GPR20 was substituted with a mouse GPR20-derived sequence, respectively, by Cell-ELISA. FIG. 21 is a diagram of the comparison between the amino acid sequences of human GPR20 (NP_005284) and mouse GPR20 (NP_775541). The four extracellular regions EC1 to EC4 are represented by positions in the amino acid sequence of human GPR20. EC1 corresponds to positions 1 to 48, EC2 corresponds to positions 108 to 125, EC3 corresponds to positions 190 to 196, and EC4 corresponds to positions 260 to 275. […]

Molecule | binding activity against mouse GPR20 [1] | binding activity after substituting EC2 of human GPR20 with that of mouse-derived GPR20 [2] | GPR20 extracellular region recognized [3]
B1 | did not bind | lost binding activity | EC1, EC2
B2 | did not bind | lost binding activity | EC1, EC2
B3 | did not bind | lost binding activity | EC1, EC2
